This note sets out measurements from patent CN117003876A (KAIKA BIO TECH SHANGHAI CO LTD, dated 2023).

The chains are these.
B1: CXCR4膜蛋白 on Hela细胞 (receptor, UniProt P61073 1-352, looked up)
chain: MEGISIYTSDNYTEEMGSGDYDSMKEPCFREENANFNKIFLPTIYSIIFLTGIVGNGLVILVMGYQKKLRSMTDKYRLHLSVADLLFVITLPFWAVDAVANWYFGNFLCKAVHVIYTVNLYSSVLILAFISLDRYLAIVHATNSQRPRKLLAEKVVYVGVWIPALLLTIPDFIFANVSEADDRYICDRFYPNDLWVVVFQFQHIMVGLILPGIVILSCYCIIISKLSHSKGHQKRKALKTTVILILAFFACWLPYYIGISIDSFILLEIIKQGCEFENTVHKWISITEALAFFHCCLNPILYAFLGAKFKTSAQHALTSVSRGSSLKILSKGKRGGHSSVSTESESSSFHSS
notes: whole, on cells; also called Hela细胞过表达CXCR4膜蛋白; Hela细胞膜蛋白CXCR4

Test [1] concerns the target T1, 生物素标记SDF-1a配体(SKU# RBP48061, Reprokine) (UniProt P48061-2 22-89, biotin-labelled (site not stated)).
T1 construct: Bought biotinylated ligand; also called SDF-1α; CXCL12
The test can be described thus: FACS on Hela cells, 0.1uM biotin-SDF-1a, SA-FITC.

The test “CXCR4膜蛋白 on Hela细胞” addresses B1. Nature of the test: FACS on Hela cells, recombinant antibody.

Turning to B1, the binding result in test [1] is “binds”.

B2: 1B5B10 (antibody, mouse IgG2b, kappa, V domains shown)
VH: DVQLQESGPGLVKPSQSLSLTCTVTGYSITSDYAWNWIRQFPGNKLEWMGYIDNSGSTNYNPSLRSRISITRDTSKNQFFLQLNSVTTEDTATYYCALNDYHYVMDYWGQGTSVTVSS
VL: DIQMTQSPASLSASVGETVTITCRPSENIYSYLAWYQQKQGKSPQLLVYSAKTLAEGVPLRFSGSYSGTHFSLRINSLQPEDFGSYYCQHHYGSPLTFGSGTKLELKR
notes: also called 1B5B10重组抗体; 鼠单抗1B5B10
As for B2, the binding result with CXCR4膜蛋白 on Hela细胞 is listed as “binds”.
